Reference: patent US20220112244A1 (DOMPE FARMACEUTICI S P A, published 2022)

T1: mouse IL-17A (mouse, UniProt Q62386 26-158)
T1 construct: also called mIL-17 Å; mIL17
T1 sequence (looked up): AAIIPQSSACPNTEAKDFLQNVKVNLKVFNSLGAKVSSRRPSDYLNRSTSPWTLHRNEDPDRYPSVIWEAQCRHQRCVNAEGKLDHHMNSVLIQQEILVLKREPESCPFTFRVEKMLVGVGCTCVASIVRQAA

B1: High Affinity Peptide (HAP), peptide of SEQ ID NO: 1 (peptide)
peptide: Ac-IHVTIPADLWDWINK-NH2
B2: peptide of SEQ ID NO: 2 (peptide)
peptide: Ac-VHVTIPADLWDWINK-NH2
notes: HAP with Ile 1 replaced by Val
B3: peptide of SEQ ID NO: 8 (peptide)
peptide: Ac-IHVTIPADLWDWVNK-NH2
B4: peptide of SEQ ID NO: 40 (peptide)
peptide: Ac-VMVTIPADLYEWIEEVPGDG-NH2
B5: peptide of SEQ ID NO: 4 (peptide)
peptide: Ac-VMVTIPADLWDWINK-NH2
B6: peptide of SEQ ID NO: 39 (peptide)
peptide: Ac-VPGDGVMVTIPADLYEWIEE-NH2

How the values were obtained:
mouse IL-17A [1] = target: T1, mouse IL-17A; experiment: SPR, mouse IL-17A amine-coupled to the chip (3000 RU), peptide 62.5-1000 nM as analyte, Scatchard analysis of RU at equilibrium
[2] = target: T2, IL-17A (agonist in the IL-17RA/IL17RC dimerization assay) (UniProt Q16552 24-155); experiment: cell-based or functional assay
mouse IL-17A [3] = target: T1, mouse IL-17A; experiment: SPR on immobilised mouse IL-17A
[4] = target: T2, IL-17A (agonist in the IL-17RA/IL17RC …); experiment: cell-based or functional assay; remark: listed apart in the source

T2 sequence (Q16552 24-155 limits assumed): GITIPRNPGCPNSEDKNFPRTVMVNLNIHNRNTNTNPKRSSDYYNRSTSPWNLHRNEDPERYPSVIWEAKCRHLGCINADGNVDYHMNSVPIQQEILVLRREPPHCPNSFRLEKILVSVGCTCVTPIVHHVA

Row | Kd (mouse IL-17A [1]) [nM] | IC50 in IL-17RA/IL7RC dimerization assay [2] [nM] | fold affinity against SEQ ID NO: 1 (mouse IL-17A [3]) [fold] | IC50, % inhibition of IL-17A-induced IL-17RA/IL17RC dimerization (PathHunter cytokine receptor assay) [4] [nM] | Binder
1 | 3700 |  |  |  | B1
2 | 130 | < 200 | 28 | 191 | B2
3 |  | < 200 |  | 189 | B3
4 |  | < 200 |  | 240 | B4
5 |  | < 100 |  | 203 | B5
6 |  | < 200 |  | 158 | B6
